This note sets out measurements from patent publication US20200347147A1 (Hoffmann-La Roche, published 2020).

Test [1] deals with T1, human Carcinoembryonic antigen (CEA), also known as Carcinoembryonic antigen-related cell adhesion molecule 5 (human, UniProt P06731 35-685).
T1 construct: whole, on cells; Expressed on the tumor cell lines MKN45, LS174T, HT29 and others, and on transiently transfected HEK293T cells; also called human CEA; CEACAM5
T1 sequence (looked up): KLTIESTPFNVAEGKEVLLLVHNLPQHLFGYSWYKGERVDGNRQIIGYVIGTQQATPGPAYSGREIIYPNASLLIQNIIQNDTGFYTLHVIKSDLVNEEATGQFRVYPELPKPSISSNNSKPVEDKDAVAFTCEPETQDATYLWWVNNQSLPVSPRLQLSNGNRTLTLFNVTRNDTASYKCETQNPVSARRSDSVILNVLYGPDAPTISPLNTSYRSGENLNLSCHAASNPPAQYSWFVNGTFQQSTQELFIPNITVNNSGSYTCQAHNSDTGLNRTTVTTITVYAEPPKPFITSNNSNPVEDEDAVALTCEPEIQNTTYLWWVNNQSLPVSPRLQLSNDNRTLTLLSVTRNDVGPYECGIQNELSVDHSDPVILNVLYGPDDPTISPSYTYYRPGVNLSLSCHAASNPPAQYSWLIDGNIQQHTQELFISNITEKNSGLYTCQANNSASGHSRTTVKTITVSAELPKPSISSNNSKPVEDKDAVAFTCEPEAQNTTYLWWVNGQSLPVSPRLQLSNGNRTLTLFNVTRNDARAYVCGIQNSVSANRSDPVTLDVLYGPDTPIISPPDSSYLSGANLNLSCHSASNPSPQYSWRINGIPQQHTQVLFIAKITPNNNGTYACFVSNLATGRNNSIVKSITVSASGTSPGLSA
Nature of the test: flow cytometry on CEA-expressing MKN45 cells, PE anti-human Fc secondary. The method, then:
Briefly, cells were harvested, counted, checked for viability and re-suspended at 2×10⁶ cells/ml in FACS buffer (100 μl PBS 0.1% BSA). […] Binding curves and EC50 values were obtained and calculated using GraphPadPrism5 (FIG. 2, binding to MKN45 cells).
For orientation: A flow cytometer gives signals particle by particle.

In test [2] the target is T1, human Carcinoembryonic antigen (CEA), …. Nature of the test: cell-based or functional assay.
Test [3] has the same target. Nature of the test: flow cytometry on MKN45 cells (~513 300 CEA binding sites). The method, then:
(§1) The binding of the TCB molecules used in Example 5A and B was tested on different CEA-expressing tumor and CD3-expressing Jurkat (DSMZ ACC 282) cells.
(§2) Briefly, cells were harvested, counted, checked for viability and re-suspended at 2×10⁶ cells/ml in FACS buffer (100 μl PBS 0.1% BSA). 100 μl of cell suspension (containing 0.2×10⁶ cells) were incubated in round-bottom 96-well plate for 30 min at 4° C. with increasing concentrations of the CEA IgG (31 pM-500 nM), washed twice with cold PBS 0.1% BSA, re-incubated for further 30 min at 4° C. with the FITC-conjugated AffiniPure F(ab′)2 Fragment goat anti-human IgG Fcg Fragment Specific secondary antibody (Jackson Immuno Research Lab FITC #109-096-008, 1:40 pre-diluted in PBS 0.1% BSA), washed twice with cold PBS 0.1% BSA and fixed using 150 μl PBS 0.1% BSA, containing 2% PFA and incubation at 4° C. for 20 min. Thereafter, cells were washed once for 8 min at 400×g, 4° C. and finally re-suspended in 150 μl FACS buffer for the FACS measurement. Fluorescence was measured using Miltenyi MACSQuant.

Test [4] has the same target. Nature of the test: flow cytometry on LS-174T cells (~40 700 CEA binding sites). How it is done:
as §1, §2

In a further test the target is T2, human CEACAM1 (human, UniProt P13688 35-526).
T2 construct: whole, on cells
T2 sequence (looked up): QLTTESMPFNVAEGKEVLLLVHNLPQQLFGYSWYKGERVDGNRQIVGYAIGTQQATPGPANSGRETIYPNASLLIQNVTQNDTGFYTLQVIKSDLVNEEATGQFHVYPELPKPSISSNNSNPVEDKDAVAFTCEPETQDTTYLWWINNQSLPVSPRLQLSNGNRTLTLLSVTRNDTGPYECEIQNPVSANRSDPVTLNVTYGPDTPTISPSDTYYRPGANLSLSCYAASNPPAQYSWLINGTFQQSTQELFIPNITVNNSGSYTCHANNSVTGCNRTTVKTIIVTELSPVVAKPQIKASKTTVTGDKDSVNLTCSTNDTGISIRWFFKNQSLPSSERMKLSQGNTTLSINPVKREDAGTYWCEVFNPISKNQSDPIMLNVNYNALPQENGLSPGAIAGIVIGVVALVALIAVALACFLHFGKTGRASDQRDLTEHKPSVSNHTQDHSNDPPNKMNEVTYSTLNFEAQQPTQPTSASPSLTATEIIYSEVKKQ
Nature of the test: flow cytometry on transient HEK293T transfectants. How it is done: (§3) Briefly, cells were harvested, counted, checked for viability and re-suspended at 1×10⁶ cells/ml in FACS buffer (100 μl PBS 0.1% BSA). 100 μl of the cell suspension (containing 0.1×10⁶ cells) were plated iton round-bottom 96-well plates and washed twice with 150 μl of cold PBS. Cells were stained for 30 min at 4° C., using a 1:5000 pre-diluted suspension of the fixable viability dye eFluor660 (eBioscience, #65-0864-14) in PBS. […] Cells were washed twice with cold PBS 0.1% BSA, re-incubated for further 30 min at 4° C. with the FITC-conjugated AffiniPure F(ab′)2 Fragment goat anti-human IgG Fcg Fragment Specific secondary antibody (Jackson Immuno Research Lab FITC #109-096-098, 1:50 pre-diluted in PBS 0.1% BSA), washed twice with cold PBS 0.1% BSA and fixed using 150 μl PBS 0.1% BSA, containing 2% PFA and incubation at 4° C. for 20 min. Thereafter, cells were washed once for 8 min at 400×g, 4° C. and finally re-suspended in 150 μl FACS buffer for the FACS measurement. Fluorescence was measured using BD FACS CantoII. Binding curves were obtained using GraphPadPrism6 (FIG. 20A).

A further test deals with T3, human CEACAM6 (human, UniProt P40199 35-320).
T3 construct: whole, on cells
T3 sequence (looked up): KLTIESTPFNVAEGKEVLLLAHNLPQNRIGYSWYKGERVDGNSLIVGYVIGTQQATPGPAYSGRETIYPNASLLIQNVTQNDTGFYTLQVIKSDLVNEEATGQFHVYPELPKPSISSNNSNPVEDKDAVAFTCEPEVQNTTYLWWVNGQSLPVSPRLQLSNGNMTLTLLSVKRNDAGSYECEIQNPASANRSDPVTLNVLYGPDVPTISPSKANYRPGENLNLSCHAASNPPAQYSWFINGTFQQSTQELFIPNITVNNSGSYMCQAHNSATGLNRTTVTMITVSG
Nature of the test: flow cytometry on transient HEK293T transfectants. The method, then:
as §3

B1: Humanized variant 1 of T84.66 IgG (antibody, V domains shown)
VH: QVQLVQSGAEVKKPGSSVKVSCKASGFNIKDTYMHWVRQAPGQGLEWMGRIDPANGNSKYVPKFQGRVTITADTSTSTAYMELSSLRSEDTAVYYCAPFGYYVSDYAMAYWGQGTLVTVSS
VL: EIVLTQSPATLSLSPGERATLSCRAGESVDIFGVGFLHWYQQKPGQAPRLLIYRASNRATGIPARFSGSGSGTDFTLTISSLEPEDFAVYYCQQTNEDPYTFGQGTKLEIK
notes: Tested as IgG and detected with an anti-human IgG Fc secondary antibody
On to B1, for which, in test [1], it took 1.5 µg/mL to reach a half-maximal effect (EC50).

B2: CEA CD3 TCB molecule X (TCB of similar structure as molecule B, based on a different humanized CEA binder not based on T84.66) (bispecific antibody)
chain 1: not shown
chain 2: QVQLVQSGAEVKKPGASVKVSCKASGYTFTEFGMNWVRQAPGQGLEWMGWINTKTGEATYVEEFKGRVTFTTDTSTSTAYMELRSLRSDDTAVYYCARWDFAYYVEAMDYWGQGTTVTVSSASTKGPSVFPLAPSSKSTSGGTAALGCLVKDYFPEPVTVSWNSGALTSGVHTFPAVLQSSGLYSLSSVVTVPSSSLGTQTYICNVNHKPSNTKVDKKVEPKSCDKTHTCPPCPAPEAAGGPSVFLFPPKPKDTLMISRTPEVTCVVVDVSHEDPEVKFNWYVDGVEVHNAKTKPREEQYNSTYRVVSVLTVLHQDWLNGKEYKCKVSNKALGAPIEKTISKAKGQPREPQVCTLPPSRDELTKNQVSLSCAVKGFYPSDIAVEWESNGQPENNYKTTPPVLDSDGSFFLVSKLTVDKSRWQQGNVFSCSVMHEALHNHYTQKSLSLSPGK
chain 3: QAVVTQEPSLTVSPGGTVTLTCGSSTGAVTTSNYANWVQEKPGQAFRGLIGGTNKRAPGTPARFSGSLLGGKAALTLSGAQPEDEAEYYCALWYSNLWVFGGGTKLTVLSSASTKGPSVFPLAPSSKSTSGGTAALGCLVKDYFPEPVTVSWNSGALTSGVHTFPAVLQSSGLYSLSSVVTVPSSSLGTQTYICNVNHKPSNTKVDKKVEPKSC
chain 4: DIQMTQSPSSLSASVGDRVTITCKASAAVGTYVAWYQQKPGKAPKLLIYSASYRKRGVPSRFSGSGSGTDFTLTISSLQPEDFATYYCHQYYTYPLFTFGQGTKLEIKRTVAAPSVFIFPPSDEQLKSGTASVVCLLNNFYPREAKVQWKVDNALQSGNSQESVTEQDSKDSTYSLSSTLTLSKADYEKHKVYACEVTHQGLSSPVTKSFNRGEC
In the case of B2, in test [2], the “EC50 of T-cell mediated lysis of Kato III cells (LDH release, human PBMC, E:T 10:1), 48 h” value was 8.23 nM. The results for the EC50 in test [3] and in test [4] were 27.9 nM and 11.7 nM, respectively.

B3: CEA CD3 TCB molecule B, "2+1 IgG CrossFab, inverted" with charge modifications, humanized CEA binder (humanized variant 1) (bispecific antibody)
heavy 1: not shown
heavy 2: QVQLVQSGAEVKKPGSSVKVSCKASGFNIKDTYMHWVRQAPGQGLEWMGRIDPANGNSKYVPKFQGRVTITADTSTSTAYMELSSLRSEDTAVYYCAPFGYYVSDYAMAYWGQGTLVTVSSASTKGPSVFPLAPSSKSTSGGTAALGCLVEDYFPEPVTVSWNSGALTSGVHTFPAVLQSSGLYSLSSVVTVPSSSLGTQTYICNVNHKPSNTKVDEKVEPKSCDKTHTCPPCPAPEAAGGPSVFLFPPKPKDTLMISRTPEVTCVVVDVSHEDPEVKFNWYVDGVEVHNAKTKPREEQYNSTYRVVSVLTVLHQDWLNGKEYKCKVSNKALGAPIEKTISKAKGQPREPQVCTLPPSRDELTKNQVSLSCAVKGFYPSDIAVEWESNGQPENNYKTTPPVLDSDGSFFLVSKLTVDKSRWQQGNVFSCSVMHEALHNHYTQKSLSLSP
light 1: EIVLTQSPATLSLSPGERATLSCRAGESVDIFGVGFLHWYQQKPGQAPRLLIYRASNRATGIPARFSGSGSGTDFTLTISSLEPEDFAVYYCQQTNEDPYTFGQGTKLEIKRTVAAPSVFIFPPSDRKLKSGTASVVCLLNNFYPREAKVQWKVDNALQSGNSQESVTEQDSKDSTYSLSSTLTLSKADYEKHKVYACEVTHQGLSSPVTKSFNRGEC
light 2: EVQLLESGGGLVQPGGSLRLSCAASGFTFSTYAMNWVRQAPGKGLEWVSRIRSKYNNYATYYADSVKGRFTISRDDSKNTLYLQMNSLRAEDTAVYYCVRHGNFGNSYVSWFAYWGQGTLVTVSSASVAAPSVFIFPPSDEQLKSGTASVVCLLNNFYPREAKVQWKVDNALQSGNSQESVTEQDSKDSTYSLSSTLTLSKADYEKHKVYACEVTHQGLSSPVTKSFNRGEC
notes: The two copies of the CEA light chain follow from the 2+1 format and the 1:2:1:1 vector ratio; also called CEA CD3 TCB based on humanized variant 1
B3: the binding result with human CEACAM1 and with human CEACAM6 was “no binding (tested: 30.5 pM-500 nM)” throughout.
